The data set addresses T1, Purified, recombinant sGNK.
T1 chain: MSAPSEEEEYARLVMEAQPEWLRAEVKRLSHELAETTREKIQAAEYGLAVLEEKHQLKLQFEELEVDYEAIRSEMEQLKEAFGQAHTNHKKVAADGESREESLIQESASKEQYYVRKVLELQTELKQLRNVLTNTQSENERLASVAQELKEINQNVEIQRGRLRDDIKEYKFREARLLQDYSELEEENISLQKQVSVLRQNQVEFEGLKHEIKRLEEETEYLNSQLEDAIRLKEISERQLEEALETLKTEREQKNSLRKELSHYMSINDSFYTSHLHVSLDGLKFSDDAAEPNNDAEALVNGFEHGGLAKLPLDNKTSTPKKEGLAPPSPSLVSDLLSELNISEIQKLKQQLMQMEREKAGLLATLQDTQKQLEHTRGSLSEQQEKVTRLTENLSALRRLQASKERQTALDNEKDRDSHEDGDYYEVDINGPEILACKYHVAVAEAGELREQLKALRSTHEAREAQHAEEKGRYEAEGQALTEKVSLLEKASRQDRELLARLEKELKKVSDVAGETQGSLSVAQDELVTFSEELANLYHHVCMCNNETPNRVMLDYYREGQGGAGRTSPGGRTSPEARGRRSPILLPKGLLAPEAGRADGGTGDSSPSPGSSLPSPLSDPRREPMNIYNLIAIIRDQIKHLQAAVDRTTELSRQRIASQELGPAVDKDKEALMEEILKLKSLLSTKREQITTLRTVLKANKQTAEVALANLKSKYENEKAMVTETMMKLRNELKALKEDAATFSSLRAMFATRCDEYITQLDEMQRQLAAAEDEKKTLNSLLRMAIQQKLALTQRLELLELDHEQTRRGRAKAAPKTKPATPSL

B1: Human recombinant GNK (hu-rGNK) (protein)
chain: MSVLGEYERHCDSINSDFGSESGGCGDSSPGPSASQGPRAGGGAAEQEELHYIPIRVLGRGAFGEATLYRRTEDDSLVVWKEVDLTRLSEKERRDALNEIVILALLQHDNIIAYYNHFMDNTTLLIELEYCNGGNLYDKILRQKDKLFEEEMVVWYLFQIVSAVSCIHKAGILHRDIKTLNIFLTKANLIKLGDYGLAKKLNSEYSMAETLVGTPYYMSPELCQGVKYNFKSDIWAVGCVIFELLTLKRTFDATNPLNLCVKIVQGIRAMEVDSSQYSLELIQMVHSCLDQDPEQRPTADELLDRPLLRKRRREMEEKVTLLNAPTKRPRSSTVTEAPIAVVTSRTSEVYVWGGGKSTPQKLDVIKSGCSARQVCAGNTHFAVVTVEKELYTWVNMQGGTKLHGQLGHGDKASYRQPKHVEKLQGKAIHQVSCGDDFTVCVTDEGQLYAFGSDYYGCMGVDKVAGPEVLEPMQLNFFLSNPVEQVSCGDNHVVVLTRNKEVYSWGCGEYGRLGLDSEEDYYTPQKVDVPKALIIVAVQCGCDGTFLLTQSGKVLACGLNEFNKLGLNQCMSGIINHEAYHEVPYTTSFTLAKQLSFYKIRTIAPGKTHTAAIDERGRLLTFGCNKCGQLGVGNYKKRLGINLLGGPLGGKQVIRVSCGDEFTIAATDDNHIFAWGNGGNGRLAMTPTERPHGSDICTSWPRPIFGSLHHVPDLSCRGWHTILIVEKVLNSKTIRSNSSGLSIGTVFQSSSPGGGGGGGGGEEEDSQQESETPDPSGGFRGTMEADRGMEGLISPTEAMGNSNGASSSCPGWLRKELENAEFIPMPDSPSPLSAAFSESEKDTLPYEELQGLKVASEAPLEHKPQVEASSPRLNPAVTCAGKGTPLTPPACACSSLQVEVERLQGLVLKCLAEQQKLQQENLQIFTQLQKLNKKLEGGQQVGMHSKGTQTAKEEMEMDPKPDLDSDSWCLLGTDSCRPSL
Turning to B1, the “phosphorylation of sGNK by GNK (kinase assay with gamma-32P-ATP, SDS-PAGE, Phosphoimager)” value is “GNK-mediated phosphorylation of sGNK was demonstrated using the kinase assay described above, except purified, recombinant sGNK was added to the kinase reaction mixture”.

The record behind these values is US20020182656.
